Reference: paper PMC8459022 (Frontiers in Plant Science, 2021)

Tests used:
[1] = biological target: T1, recombinant human PD-1 His tag protein (Homo sapiens, UniProt Q15116); assay: cell-based or functional assay
T1 sequence (Q15116 25-170): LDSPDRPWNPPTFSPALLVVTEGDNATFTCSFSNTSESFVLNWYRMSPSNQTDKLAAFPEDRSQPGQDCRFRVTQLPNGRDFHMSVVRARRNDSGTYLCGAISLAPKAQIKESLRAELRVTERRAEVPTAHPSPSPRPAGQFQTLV

[2] = biological target: T1, recombinant human PD-1 His tag protein; assay: SPR; Biacore T200, antibody (3 ug/ml) captured on protein G sensor chip in HBS-EP; single-cycle kinetics with human PD-1 His tag at 10, 20, 40, 80 and 160 nM, 30 ul/min, 60 s association, 120 s dissociation; Langmuir 1:1 model; conditions: both partners purified
[3] = biological target: T2, recombinant human PD-1 His tag protein (Homo sapiens, UniProt Q15116); assay: SPR; Biacore T200; antibodies (3 ug/ml in HBS-EP) captured on a protein G sensor chip; human PD-1 His tag injected at 10, 20, 40, 80 and 160 nM, single-cycle kinetics, 30 ul/min, 60 s association, 120 s dissociation; Langmuir 1:1 model; conditions: both partners purified
T2 construct: programmed cell death protein 1 (PD-1), human; recombinant, R&D Systems 8986-PD; also called programmed cell death protein 1; source: bought: R&D Systems
T2 sequence (Q15116 25-170): as above

Row | PD-1/PD-L1 blockade bioassay (luciferase reporter; Jurkat/PD-1 effector cells with CHO-K1/PD-L1 cells, 6 h); EC50 of blocking PD-1 with PD-L1 [1] [ng/mL] | Kd [2] [nM] | koff [3] [s⁻¹] | kon [3] [M⁻¹ s⁻¹] | Binder
1 | 147 | 8.51 | – | – | plant-produced Pembrolizumab (antibody, V domains shown, Pembrolizumab heavy chain; DrugBank DB09037; Pembrolizumab light chain (kappa); IgG4 kappa antibody; assembled as full IgG (150 kDa) by non-reducing SDS-PAGE and SEC; also called Pem WT; anti-human PD-1 monoclonal antibody produced in Nicotiana benthamiana; copies: 2 + 2) VH: QVQLVQSGVEVKKPGASVKVSCKASGYTFTNYYMYWVRQAPGQGLEWMGGINPSNGGTNFNEKFKNRVTLTTDSSTTTAYMELKSLQFDDTAVYYCARRDYRFDMGFDYWGQGTTVTVSS VL: EIVLTQSPATLSLSPGERATLSCRASKGVSTSGYSYLHWYQQKPGQAPRLLIYLASYLESGVPARFSGSGSGTDFTLTISSLEPEDFAVYYCQHSRDLPLTFGGGTKVEIK
2 | 147 | 8.26 | – | – | Keytruda (mammalian cell-produced commercial Pembrolizumab) (antibody, V domains shown, Pembrolizumab heavy chain; as the heavy chain of m1 without the C-terminal SEKDEL; DrugBank DB09037; Pembrolizumab light chain; as the light chain of m1; Commercial drug product used as the positive control and comparator; source: bought: commercial Keytruda, mammalian cell-produced) VH: QVQLVQSGVEVKKPGASVKVSCKASGYTFTNYYMYWVRQAPGQGLEWMGGINPSNGGTNFNEKFKNRVTLTTDSSTTTAYMELKSLQFDDTAVYYCARRDYRFDMGFDYWGQGTTVTVSS VL: EIVLTQSPATLSLSPGERATLSCRASKGVSTSGYSYLHWYQQKPGQAPRLLIYLASYLESGVPARFSGSGSGTDFTLTISSLEPEDFAVYYCQHSRDLPLTFGGGTKVEIK
3 | – | – | 0.00339 | 410000 | commercial Pembrolizumab (Keytruda) (antibody, V domains shown, Pembrolizumab heavy chain; as the heavy chain of Wm1 without the C-terminal SEKDEL; Pembrolizumab light chain; as the light chain of Wm1; The commercial drug; also called mammalian cell-produced Pembrolizumab; source: bought: commercial Pembrolizumab (Keytruda), mammalian cell-produced) VH: QVQLVQSGVEVKKPGASVKVSCKASGYTFTNYYMYWVRQAPGQGLEWMGGINPSNGGTNFNEKFKNRVTLTTDSSTTTAYMELKSLQFDDTAVYYCARRDYRFDMGFDYWGQGTTVTVSS VL: EIVLTQSPATLSLSPGERATLSCRASKGVSTSGYSYLHWYQQKPGQAPRLLIYLASYLESGVPARFSGSGSGTDFTLTISSLEPEDFAVYYCQHSRDLPLTFGGGTKVEIK
